Measured values from the nanobody polyreactivity screen of Harvey et al. (2022).

Assay: yeast display, Sf9 membrane polyspecificity reagent, FACS + sequencing; frameworks hold sequencing errors
Procedure, shortened: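 Genes from sorted yeast were amplified by colony PCR, read by MiSeq 2 × 250 sequencing and filtered on CDR length. These cells carried a synthetic nanobody library in Saccharomyces cerevisiae BJ5465 and were sorted by FACS into low and high (top ~1%) gates on anti-HA and streptavidin fluorescence. Polyreactivity is labelled according to the gate of origin.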

| Sequence | polyreactivity (PSR sort gate) |
| --- | --- |
| QVQLVESGGGLVQAGGSLRLSCAASGRIFGTYAMGWYRQAPGKERELVAVITRGGGTKYADSVKGRFTISRDNAKNTVYLQMNSLKPEDTAVYYCAARGRYYGYNYWGQGTQVTVSS | high polyreactivity |
| QVQLVESGGGLVQAGGSLRLSCAASGSIFYHYAMGWYRQAPGKERELVATINWSGGSTYYADSVKGRFTISRDNAKNTVYLQMNSLKPEDTAVYYCYSDSAIGLYVSSTPYGYDYWGQGTQVTVSS | low polyreactivity |
| QVQLVESGGGLVQARGSLRLSCAASGFTFYFYAMGWYRQATGKETELVAAISRSGSRTYYADSVKGRFTISRDNAKNTVYLQMNSLKPVDTAVYYCARVRPRGLYFVLHYDYWGQGTQVTVSS | high polyreactivity |
| QVQLVESGGGLVQAGGSLRLSCAASRSIFSWYAMGWYRTAPGTERELVAAITWTGGSTYYADSVKGRFTISRDNAKNTVYLQMKSLKTEDTAVYYCAARRVVYRKYGDRGRWYNYWGQGTQVTVSS | high polyreactivity |
| QVQLVESGGGLVQAGGSLRLSCAASGLILVPNTMGWYRQAPGKERELVAAISYSGGGTYYADSVKGRFTISRDNAKNTVYLQMNSLKPEDTAVYYCAADFYQSHFYRPRYDYWGQGTQVTVSS | low polyreactivity |
| QVQLQESGGGLVQAGGSLRLSCAASGSISGPHVMGWYRQAPGKVREFVAAINVGANTYYADNVKGRFTISRDNAKNTVYLQMNSLKPEDTAVYYCAAAYYGDIGHEYWGQGTQVTVSS | low polyreactivity |
| QVQHVESGGGLVQAGGRLRLSCAASGSTFDYYVMGWYRQAPGKEREMVAAISQNAGSTYYADSVKGRFTISRDNAKNTVYLQMNSLKPEDTAVYYCAAPDYRNGVRYPLDYWGQGTQVTVSS | low polyreactivity |
| QVQLVESGGGLVQAGGSLRLSCAASGSIFQKYAMGWYRQAPGKDRELVAAISWDGGRTYYADSVKGRFTISRDNAKNTVYLQMNSLKPEDTAVYYCYWYDYWGHGTQVTVSS | high polyreactivity |
| QVQLVESGGGLVQAGGSLRLSCAASGSIFTANAMGWYRQAPGKERELVAAISRSGGNTYYADSVKGRFTISRDNAKNTVYLQMNSLKPEDTAVYYCAARQKGTGNYWGQGTQVTVSS | high polyreactivity |
| QVQLVESCGGLVQAGGSHRLSCAASGRIFGVYVMGWYRQAPGKERELVAAISWSCSHTYYADSVKGRYTISRDNAKNTVYLQMNSLKPEDTAVYYCNADSYPDYTGPGLDWYDYWGHGTQVTVSS | low polyreactivity |
| QVQLVESGGGLVQAGGSLRLSCAASGRTFGLYAMGWYRQAPGKERELVAAISWGGGRTYYADSVKGRFTISRDNAKNTVYLLMNSLKPEDTAVYYCNALYATYYLGYDYWGQGTQVTVSS | high polyreactivity |
| QVQLVESGGGLVQAGGSLRLSCAASGSFLVYYAMGWYRQAPGKERELVAAISWRGDSTSYADSVKGRFTISRDNAKNTVYLQMNSLKPEETAVYYCATAHDYAFYRYWYVPSEYNYWGQGTQVTVSS | low polyreactivity |
| QVQLVESGGGLVQAGGSLRLSCAASGRTLWYYTMGWYRQAPGKERELVADITRGTSTNYADSVKGRFTISRDNAKNSVYLQMNSLKPEDTAVYYCNRAHGRSRYSRDYESWGQGTQVTVSS | low polyreactivity |
| QVQLVESGGGLVQAGGSLRLRCASSGITFRGYAMGWYRQAPGKERELVASITNTDSTYYADSVKGRFTISRDNAKNTVYLQMNSLKPEDTAVYYCAARRGRKYGYWGQGTQVTVSS | high polyreactivity |
| QVQLVESGGGLVQAGGSLRLSCAASGSISRVYTMGWYRQAPGKQRELVAVIRRSSGSTYYADSLKGRFTISRDNAKNTVYFQMNSLKPEDTAVYYCAARGYYSGQTTIGMDYWGQGTQVTVSS | low polyreactivity |
| QVQLVESGGGLVQAGGSLRLSCAASGITFYRYAMGWYRQAPGKERELVAAISRSGGSTYYADSVKGRFTISRDNAKNTVYLQMNSLKPEDTAGYYCAAYILGNRDGYEYWGQGTQVTVSS | high polyreactivity |
| QVQLVESGGGLVQAGGSLRLSCAASGSTSQPYDMGWYRQAPGTERELVASITNGGSTNYADSVKGRFTISRDNAKNTVYLQMNSLNPEDTAVDYCATRNGYSGTYGYWGQGTQVTVSS | low polyreactivity |
| QVQLVESGGGLVQAGGSLRLSCAASGSIFGWYAMGWYRQAPGKERELVAAISWDGGDTYYADSVKGRFTISRDNAKNTVYLQMNSLKPEDTAVYYCAAELGYYDYGSYYSYDYWGQGTQVTVSS | high polyreactivity |
| QVQLLESGGGLVPAGGSLRLSCAASGYIFHRYAMGWSRQAPGKERELVAAITWTGARTYYADSVKGRFTISRDNAKNTVYLQMNSLKPEDTAVYYAGPASYSFAKSGYWGQGTQVTVSS | high polyreactivity |
| EVQLVESGGGLVQAGGSLRLSCAASGSTFNWNDMGWYRQAPGKEREFVASISTTGSTNYADSVKGRFTISRDNAKNTVYLQMNSLKPEDTAVYYCNAEYGWYYWYGYWFYEGDYWGQGTQVTVSS | high polyreactivity |
| QVQLVESGGGLVQAGGSLRLSCSASGSIFRYNAMGWYRQAPGKERELVAGITSGGSTNYADSVKGRFTISRDNAKNTVYLQMNSLKPEDTAVYYCATGTRSYYRWWRLMNYWGQGTQVTVSS | high polyreactivity |
| QVQLVESGGGLVQAGGSLRLSCAASGRTLVRNAMGWYTQAPGKEREFVAGITESGDRTSYADSVKGRFTISRDNAKNTVYLQMNSLKPEDTAVYFCAASRPWDFYSFGFDYWGQGTQVTVSS | high polyreactivity |
